Read-outs that look alike come from different tables or passages of the source.
Experiments:
KB cells = assay: Uptake of ^67 Ga-DF-folate complex by cultured KB cells; format: cell-based, human
Description: Cell Culture. KB cells, a human nasopharyngeal epidermal carcinoma cell line that greatly overexpresses the folate binding protein, were cultured continuously as a monolayer at 37° C. in a humidified atmosphere containing 5% CO2 in folate-deficient modified Eagle's medium (FDMEM) (a folate-free modified Eagle's medium supplemented with 10% (v/v) heat-inactivated fetal calf serum as the only source of folate) containing penicillin (50 units/mL), streptomycin (50 μg/mL), and 2 mM L-glutamine. The final folate concentration in the complete FDMEM is the physiological range (~2 nM). 48 h prior to each experiment, the cells were transferred to 35 mm culture dishes at 5×10^5 cells per dish and grown to ~80% confluent.
Because folate and its conjugates bind to cell surface receptors at 4° C., but are capable of endocytosis only at higher temperatures, it is possible to separately evaluate the kinetics of binding the internalization of folate by measuring the rates of folate conjugate uptake at the two temperatures. […] By the end of the 30 min incubation, binding approached to saturation with ~18% of the initial radioactivity found associated with a cell surface.
Incubation at 37° C., a temperature which permits both binding and endocytosis, yielded similar kinetic results, however, maximal uptake reached 32% of the total conjugate added. Presumably, the difference in magnitude of the two cellular uptake curves reflects the ability of the folate receptor to internalize the conjugate and then recycle to the cell surface in its unoccupied form. […] This latter result is consistent with the inability of the α-conjugate to compete with free folate for the cell surface receptor.
To verify the involvement of a cell surface folate receptor in mediating the uptake of ^67 Ga-DF-folate(γ), binding and internalization of the complex were evaluated as a function of the complex's concentration. Cellular uptake of ^67 Ga-DF-folate(γ) was concentration dependent at both 4° C. and 37° C., saturating at levels of 20% and 35% of the total radioactivity added, respectively.

[1] = system: Subcutaneous KB Cell Tumors; details: mouse, in vivo, iv; for Tumor-to-Non-target Ratio: Tumor/blood / Tumor-to-Non-target Ratio: Tumor/kidney / Tumor-to-Non-target Ratio: Tumor/liver / Tumor-to-Non-target Ratio: Tumor/muscle: 240 min; for Percentage of Injected Dose per Gram of Tissue: Blood / Percentage of Injected Dose per Gram of Tissue: Heart / Percentage of Injected Dose per Gram of Tissue: Kidney / Percentage of Injected Dose per Gram of Tissue: Liver / Percentage of Injected Dose per Gram of Tissue: Lungs / Percentage of Injected Dose per Gram of Tissue: Muscle / Percentage of Injected Dose per Gram of Tissue: Tumor: 4 h
KB Tumors [2] = details: mouse, in vivo, iv
KB Tumors [3] = assay: Biodistribution of ^125 I-RNase-Folate conjugate and ^125 I-RNase control following I.V. administration to athymic mice with KB tumors; details: folate-free diet
[4] = In vivo delivery to mice of ^125 I soybean trypsin inhibitor; details: 15 minutes after tail vein injection, perfused
Description: Mice (25 g) were then injected with either the biotinylated SBTI or the control SBTI by insertion of a hypodermic syringe containing a 25 gauge needle into the tail vein of the mouse. After 15 minutes, each mouse was sacrificed and then perfused with heparin-containing isotonic saline via the direct cardiac influx and efflux method.

[5] = system: KB cells (a human nasopharyngeal cell line); assay: Uptake of ^125 I-labeled folate-labeled protein by KB cells; format: cell-based; details: procedure of Example 17

CC(=O)N([O-])CCCCCNC(=O)CCC(=O)N([O-])CCCCCNC(=O)CCC(=O)N([O-])CCCCCN.[67Ga+3] [^67 Ga-DF, reference compound]
uptake by the KB cells (KB cells; controls): did not show any significant uptake
Tumor-to-Non-target Ratio: Tumor/blood [1]: 3.9 ± 1.2
Tumor-to-Non-target Ratio: Tumor/kidney [1]: 0.08 ± 0.01
Tumor-to-Non-target Ratio: Tumor/liver [1]: 1.16 ± 0.10
Tumor-to-Non-target Ratio: Tumor/muscle [1]: 2.56 ± 0.15
Percentage of Injected Dose per Gram of Tissue: Blood [1]: 0.026 ± 0.009 % of injected dose per gram
Percentage of Injected Dose per Gram of Tissue: Heart [1]: 0.021 ± 0.002 % of injected dose per gram
Percentage of Injected Dose per Gram of Tissue: Kidney [1]: 1.26 ± 0.19 % of injected dose per gram
Percentage of Injected Dose per Gram of Tissue: Liver [1]: 0.082 ± 0.010 % of injected dose per gram
Percentage of Injected Dose per Gram of Tissue: Lungs [1]: 0.054 ± 0.010 % of injected dose per gram
Percentage of Injected Dose per Gram of Tissue: Muscle [1]: 0.037 ± 0.001 % of injected dose per gram
Percentage of Injected Dose per Gram of Tissue: Tumor [1]: 0.094 ± 0.004 % of injected dose per gram

O=C([O-])CC(O)(CC(=O)[O-])C(=O)[O-].[67Ga+3] [^67 Ga-citrate, reference compound]
cell-associated ^67 Ga radioactivity, fold lower than ^67 Ga-DF-folate(γ) (KB cells; 37° C., 30 min): 106 fold
Tumor-to-Non-target Ratio: Tumor/blood [1]: 0.84 ± 0.19
Tumor-to-Non-target Ratio: Tumor/kidney [1]: 2.4 ± 0.3
Tumor-to-Non-target Ratio: Tumor/liver [1]: 2.3 ± 0.2
Tumor-to-Non-target Ratio: Tumor/muscle [1]: 5.4 ± 0.7
Percentage of Injected Dose per Gram of Tissue: Blood [1]: 13.5 ± 3.2 % of injected dose per gram
Percentage of Injected Dose per Gram of Tissue: Heart [1]: 3.4 ± 0.2 % of injected dose per gram
Percentage of Injected Dose per Gram of Tissue: Kidney [1]: 4.6 ± 0.4 % of injected dose per gram
Percentage of Injected Dose per Gram of Tissue: Liver [1]: 4.7 ± 0.3 % of injected dose per gram
Percentage of Injected Dose per Gram of Tissue: Lungs [1]: 9.1 ± 2.7 % of injected dose per gram
Percentage of Injected Dose per Gram of Tissue: Muscle [1]: 2.04 ± 0.29 % of injected dose per gram
Percentage of Injected Dose per Gram of Tissue: Tumor [1]: 10.9 ± 0.2 % of injected dose per gram

B1: ^125 I-RNase-Folate: ^125 I labeled ribonuclease-folate conjugate (conjugate, UniProt P61823 27-150, looked up)
Ribonuclease pancreatic: KETAAAKFERQHMDSSTSAASSSNYCNQMMKSRNLTKDRCKPVNTFVHESLADVQAVCSQKNVACKNGQTNCYQSYSTMSITDCRETGSSKYPNCAYKTTQANKHIIVACEGNPYVPVHFDASV
modifications: 125I label; folate conjugated
Percentage of Injected Dose per Gram: Blood (KB Tumors [2]; 1 h): 5.34 ± 1.07 % of injected dose per gram
Percentage of Injected Dose per Gram: Bone (KB Tumors [2]; 1 h): 3.20 ± 0.23 % of injected dose per gram
Percentage of Injected Dose per Gram: Heart (KB Tumors [2]; 1 h): 2.01 ± 0.22 % of injected dose per gram
Percentage of Injected Dose per Gram: Intestines (KB Tumors [2]; 1 h): 2.03 ± 0.28 % of injected dose per gram
Percentage of Injected Dose per Gram: Kidney (KB Tumors [2]; 1 h): 16.08 ± 2.76 % of injected dose per gram
Percentage of Injected Dose per Gram: Liver (KB Tumors [2]; 1 h): 9.78 ± 1.11 % of injected dose per gram
Percentage of Injected Dose per Gram: Lungs (KB Tumors [2]; 1 h): 4.19 ± 0.61 % of injected dose per gram
Percentage of Injected Dose per Gram: Muscle (KB Tumors [2]; 1 h): 1.73 ± 0.32 % of injected dose per gram
Percentage of Injected Dose per Gram: Spleen (KB Tumors [2]; 1 h): 9.94 ± 1.37 % of injected dose per gram
Percentage of Injected Dose per Gram: Stomach (KB Tumors [2]; 1 h): 21.07 ± 2.57 % of injected dose per gram
Percentage of Injected Dose per Gram: Testes (KB Tumors [2]; 1 h): 1.50 ± 0.18 % of injected dose per gram
Percentage of Injected Dose per Gram: Tumor (KB Tumors [2]; 1 h): 5.35 ± 0.54 % of injected dose per gram
Tumor/Blood (KB Tumors [2]; 60 min): 1.02 ± 0.16
Tumor/Muscle (KB Tumors [2]; 60 min): 3.14 ± 0.43
Percentage of Injected Dose per Gram: Blood (KB Tumors [2]; 4 h): 2.30 ± 0.62 % of injected dose per gram
Percentage of Injected Dose per Gram: Bone (KB Tumors [2]; 4 h): 1.17 ± 0.28 % of injected dose per gram
Percentage of Injected Dose per Gram: Heart (KB Tumors [2]; 4 h): 0.93 ± 0.39 % of injected dose per gram
Percentage of Injected Dose per Gram: Intestines (KB Tumors [2]; 4 h): 0.95 ± 0.16 % of injected dose per gram
Percentage of Injected Dose per Gram: Kidney (KB Tumors [2]; 4 h): 5.11 ± 1.27 % of injected dose per gram
Percentage of Injected Dose per Gram: Liver (KB Tumors [2]; 4 h): 3.29 ± 0.77 % of injected dose per gram
Percentage of Injected Dose per Gram: Lungs (KB Tumors [2]; 4 h): 1.97 ± 0.77 % of injected dose per gram
Percentage of Injected Dose per Gram: Muscle (KB Tumors [2]; 4 h): 0.98 ± 0.54 % of injected dose per gram
Percentage of Injected Dose per Gram: Spleen (KB Tumors [2]; 4 h): 2.78 ± 0.73 % of injected dose per gram
Percentage of Injected Dose per Gram: Stomach (KB Tumors [2]; 4 h): 26.45 ± 8.05 % of injected dose per gram
Percentage of Injected Dose per Gram: Testes (KB Tumors [2]; 4 h): 1.0 ± 0.15 % of injected dose per gram
Tumor/Blood (KB Tumors [2]; 1440 min): 11.88 ± 3.71
Tumor/Muscle (KB Tumors [2]; 1440 min): 32.6 ± 6.7
Percentage of Injected Dose per Gram: Blood (KB Tumors [2]; 24 h): 0.04 ± 0.01 % of injected dose per gram
Percentage of Injected Dose per Gram: Bone (KB Tumors [2]; 24 h): 0.09 ± 0.03 % of injected dose per gram
Percentage of Injected Dose per Gram: Heart (KB Tumors [2]; 24 h): 0.024 ± 0.006 % of injected dose per gram
Percentage of Injected Dose per Gram: Intestines (KB Tumors [2]; 24 h): 0.05 ± 0.006 % of injected dose per gram
Percentage of Injected Dose per Gram: Kidney (KB Tumors [2]; 24 h): 0.72 ± 0.07 % of injected dose per gram
Percentage of Injected Dose per Gram: Liver (KB Tumors [2]; 24 h): 0.38 ± 0.03 % of injected dose per gram
Percentage of Injected Dose per Gram: Lungs (KB Tumors [2]; 24 h): 0.04 ± 0.01 % of injected dose per gram
Percentage of Injected Dose per Gram: Muscle (KB Tumors [2]; 24 h): 0.013 ± 0.002 % of injected dose per gram
Percentage of Injected Dose per Gram: Spleen (KB Tumors [2]; 24 h): 0.23 ± 0.04 % of injected dose per gram
Percentage of Injected Dose per Gram: Stomach (KB Tumors [2]; 24 h): 0.26 ± 0.14 % of injected dose per gram
Percentage of Injected Dose per Gram: Testes (KB Tumors [2]; 24 h): 0.021 ± 0.004 % of injected dose per gram
Percentage of Injected Dose per Gram: Tumor (KB Tumors [2]; 24 h): 0.41 ± 0.02 % of injected dose per gram
Percentage of Injected Dose per Gram: Brain (KB Tumors [3]; 1 hour after i.v.): 0.29 ± 0.04 % of injected dose per gram
Percentage of Injected Dose per Gram: Brain (KB Tumors [3]; 4 hours after i.v.): 0.19 ± 0.14 % of injected dose per gram
Percentage of Injected Dose per Gram: Brain (KB Tumors [3]; 24 hours after i.v.): 0.007 ± 0.001 % of injected dose per gram

B2: ^125 I-RNase: ^125 I labeled ribonuclease (lacking folate), control (protein, UniProt P61823 27-150, looked up)
Ribonuclease pancreatic: KETAAAKFERQHMDSSTSAASSSNYCNQMMKSRNLTKDRCKPVNTFVHESLADVQAVCSQKNVACKNGQTNCYQSYSTMSITDCRETGSSKYPNCAYKTTQANKHIIVACEGNPYVPVHFDASV
modifications: 125I label
Percentage of Injected Dose per Gram: Brain (KB Tumors [3]; 1 hour after i.v.): 0.19 ± 0.06 % of injected dose per gram
Percentage of Injected Dose per Gram: Brain (KB Tumors [3]; 4 hours after i.v.): 0.06 ± 0.004 % of injected dose per gram
Percentage of Injected Dose per Gram: Brain (KB Tumors [3]; 24 hours after i.v.): 0.0055 ± 0.0006 % of injected dose per gram

B3: Control SBTI: ^125 I soybean trypsin inhibitor left as an unmodified control (protein, UniProt P01070 25-205, looked up)
Trypsin inhibitor A: DFVLDNEGNPLENGGTYYILSDITAFGGIRAAPTGNERCPLTVVQSRNELDKGIGTIISSPYRIRFIAEGHPLSLKFDSFAVIMLCVGIPTEWSVVEDLPEGPAVKIGENKDAMDGWFRLERVSDDEFNNYKLVFCPQQAEDDKCGDIGISIDHDDGTRRLVVSKNKPLVVQFQKLDKESL
modifications: 125I label
Counts per minute/gram wet weight: Brain [4]: 0 Counts per minute/gram wet weight
Counts per minute/gram wet weight: Heart [4]: 0 Counts per minute/gram wet weight
Counts per minute/gram wet weight: Intestine [4]: 0 Counts per minute/gram wet weight
Counts per minute/gram wet weight: Kidney [4]: 5152 Counts per minute/gram wet weight
Counts per minute/gram wet weight: Liver [4]: 535 Counts per minute/gram wet weight
Counts per minute/gram wet weight: Lung [4]: 107 Counts per minute/gram wet weight
Counts per minute/gram wet weight: Muscle [4]: 0 Counts per minute/gram wet weight

B4: SBTI: soybean trypsin inhibitor, folate-ligated as in Example 17 (conjugate, UniProt P01070 25-205, looked up)
Trypsin inhibitor A: DFVLDNEGNPLENGGTYYILSDITAFGGIRAAPTGNERCPLTVVQSRNELDKGIGTIISSPYRIRFIAEGHPLSLKFDSFAVIMLCVGIPTEWSVVEDLPEGPAVKIGENKDAMDGWFRLERVSDDEFNNYKLVFCPQQAEDDKCGDIGISIDHDDGTRRLVVSKNKPLVVQFQKLDKESL
modifications: folate conjugated
uptake of SBTI by KB cells [5]: Folate ligation was again demonstrated to be essential for uptake

From US5688488A, “Composition and method for tumor imaging” (priority 1995, dated 1997)
